According to PMC10673995, “Discovery of a novel cardiac-specific myosin modulator using artificial intelligence-based virtual screening” (Nature Communications, 2023):
pKd: −log10 of the molar value.

Target: myosin S2 tail domain (UniProt P12883)
Assay: MST; Monolith NT.115; 100 nmol/L Alexa647-labeled protein fixed, partner titrated (which was labeled is not told); 20 mmol/L Mops pH 7, 1 mmol/L MgCl2, 50 mmol/L KCl, 1 mmol/L DTT, 0.05% Tween-20; various nucleotides, with and without F10

Sequence of myosin S2 tail domain (P12883 whole entry, the tested form may be a part): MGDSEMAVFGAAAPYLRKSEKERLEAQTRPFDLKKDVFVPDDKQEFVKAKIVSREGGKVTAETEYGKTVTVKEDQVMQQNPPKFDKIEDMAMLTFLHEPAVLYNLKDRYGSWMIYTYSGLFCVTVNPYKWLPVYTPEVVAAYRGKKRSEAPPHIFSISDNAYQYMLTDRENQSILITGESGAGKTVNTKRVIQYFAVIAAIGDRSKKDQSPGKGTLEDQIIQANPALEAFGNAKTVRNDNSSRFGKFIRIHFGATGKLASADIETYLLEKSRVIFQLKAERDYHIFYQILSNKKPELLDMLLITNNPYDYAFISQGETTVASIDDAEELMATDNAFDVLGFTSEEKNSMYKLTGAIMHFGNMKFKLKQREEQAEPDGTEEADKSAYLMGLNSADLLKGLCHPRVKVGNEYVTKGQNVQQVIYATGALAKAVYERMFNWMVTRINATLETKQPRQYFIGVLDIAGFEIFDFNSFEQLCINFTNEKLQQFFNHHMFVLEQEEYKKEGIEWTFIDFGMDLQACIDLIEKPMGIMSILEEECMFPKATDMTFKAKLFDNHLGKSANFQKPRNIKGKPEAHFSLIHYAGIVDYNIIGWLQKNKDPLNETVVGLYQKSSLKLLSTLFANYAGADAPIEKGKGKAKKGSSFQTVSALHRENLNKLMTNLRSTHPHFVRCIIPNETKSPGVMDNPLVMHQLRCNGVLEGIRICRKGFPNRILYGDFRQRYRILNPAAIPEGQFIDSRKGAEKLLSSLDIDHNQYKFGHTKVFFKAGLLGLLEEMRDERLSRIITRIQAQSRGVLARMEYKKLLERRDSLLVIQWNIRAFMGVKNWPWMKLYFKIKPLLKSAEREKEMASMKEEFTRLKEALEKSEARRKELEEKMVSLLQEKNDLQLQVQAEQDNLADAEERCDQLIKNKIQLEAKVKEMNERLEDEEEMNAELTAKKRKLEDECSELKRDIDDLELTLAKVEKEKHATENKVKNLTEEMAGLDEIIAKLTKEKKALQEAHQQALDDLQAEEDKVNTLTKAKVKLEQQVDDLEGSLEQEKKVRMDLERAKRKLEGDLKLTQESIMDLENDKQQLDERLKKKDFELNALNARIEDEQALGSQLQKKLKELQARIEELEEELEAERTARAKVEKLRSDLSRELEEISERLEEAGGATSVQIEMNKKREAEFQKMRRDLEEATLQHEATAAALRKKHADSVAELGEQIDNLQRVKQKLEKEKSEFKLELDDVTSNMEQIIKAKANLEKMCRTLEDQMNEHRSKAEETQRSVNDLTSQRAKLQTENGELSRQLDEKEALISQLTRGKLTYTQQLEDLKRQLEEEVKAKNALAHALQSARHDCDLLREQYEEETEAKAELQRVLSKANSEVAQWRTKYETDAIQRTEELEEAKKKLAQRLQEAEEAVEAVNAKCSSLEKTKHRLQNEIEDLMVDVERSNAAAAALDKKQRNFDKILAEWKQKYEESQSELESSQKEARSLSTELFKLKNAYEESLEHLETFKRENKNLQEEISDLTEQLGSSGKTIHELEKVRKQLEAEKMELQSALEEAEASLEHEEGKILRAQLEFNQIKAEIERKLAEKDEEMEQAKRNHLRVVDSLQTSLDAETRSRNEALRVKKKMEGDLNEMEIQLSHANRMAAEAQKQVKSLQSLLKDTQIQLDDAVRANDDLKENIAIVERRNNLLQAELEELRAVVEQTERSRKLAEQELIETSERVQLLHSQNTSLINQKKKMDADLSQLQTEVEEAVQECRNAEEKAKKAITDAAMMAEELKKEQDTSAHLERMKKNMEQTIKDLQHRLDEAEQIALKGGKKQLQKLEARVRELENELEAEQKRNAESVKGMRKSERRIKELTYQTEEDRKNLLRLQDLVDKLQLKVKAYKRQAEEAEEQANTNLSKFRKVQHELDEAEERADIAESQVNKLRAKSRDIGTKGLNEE

pKd: 4.82
Substance: bovine β-cardiac myosin S1 (from UniProt Q9BE39 1-1935; P85100 1-199) (domain or fragment)
